The supplement of paper PMC7125110
± gives the standard error. Variants at the floor of the assay were thinned out.

B1: glmS ribozyme (parent)
chain: AUAAAAGCGCCAGAACUACAGAAAUGUAGUUGACGAGGAGGAGGUUUAUCGAAUUUUCGGCGGAUGCCUCCAAA

Assays:
Settings in all cases: with glucosamine-6-phosphate
[1] = variants of: B1; test: self-cleavage kobs at 40 uM GlcN6P; higher = faster cleavage; RNA array
Outline: (§1)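 E. coli RNA polymerase transcribed barcoded ribozyme variants in situ on sequenced MiSeq chips, which were tracked via a hybridised Cy3 probe at 37 °C. Tiles were imaged over ~14 h after glucosamine-6-phosphate (40 μM to 10 mM) in HEPES/KCl/Mg(OAc)2 buffer was flowed in. Normalised per-tile medians were fit to one- or two-exponential decays for kobs, and kcat and KM came from weighted Michaelis–Menten fits.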

[2] = variants of: B1; test: self-cleavage kobs at 640 uM GlcN6P; higher = faster cleavage; RNA array
Outline: as §1

[3] = variants of: B1; test: self-cleavage kobs at 160 uM GlcN6P; higher = faster cleavage; RNA array
Outline: as §1

[4] = variants of: B1; test: self-cleavage kobs at 2500 uM GlcN6P; higher = faster cleavage; RNA array
Outline: as §1

[5] = variants of: B1; test: self-cleavage kobs at 10000 uM GlcN6P; higher = faster cleavage; RNA array
Outline: as §1

| Variant | self-cleavage kobs at 40 uM GlcN6P [1] [s⁻¹] | self-cleavage kobs at 640 uM GlcN6P [2] [s⁻¹] | self-cleavage kobs at 160 uM GlcN6P [3] [s⁻¹] | self-cleavage kobs at 2500 uM GlcN6P [4] [s⁻¹] | self-cleavage kobs at 10000 uM GlcN6P [5] [s⁻¹] |
| --- | --- | --- | --- | --- | --- |
| U30C A52U | < 1e-05 | < 1e-05 | – | – | – |
| C16U U49C | < 1e-05 | < 1e-05 | < 1e-05 | < 1e-05 | – |
| U30G A33U G60A | < 1e-05 | < 1e-05 | – | < 1e-05 | – |
| G29C C58G | < 1e-05 | – | – | 6.23e-05 ± 2.1e-05 | 4.93e-05 ± 1.5e-05 |
| G29A G43C | < 1e-05 | < 1e-05 | < 1e-05 | – | < 1e-05 |
| U30A G66C C70G | < 1e-05 | – | – | – | – |
| C16U C50G G62A C67G | 6.99e-05 ± 1.9e-05 | 0.000337 ± 7.8e-05 | – | – | 9.28e-05 ± 1.6e-05 |
| U31G G63A | < 1e-05 | < 1e-05 | < 1e-05 | < 1e-05 | < 1e-05 |
| G29U C34U A42C | < 1e-05 | < 1e-05 | < 1e-05 | < 1e-05 | < 1e-05 |
| G32A A48U C70U | < 1e-05 | – | – | – | – |
| G21A | 0.00134 ± 0.00021 | 0.00836 ± 0.0012 | 0.00268 ± 0.00063 | 0.00839 ± 0.0024 | 0.0758 ± 0.037 |
| U30A A52U U54A C71A | < 1e-05 | – | – | – | – |
| G29U G63U | < 1e-05 | < 1e-05 | < 1e-05 | – | < 1e-05 |
| G32A A33U C68G C71G | 0.000162 ± 3.9e-05 | 0.000432 ± 0.0001 | – | 9.26e-05 ± 3.4e-05 | 0.000152 ± 3.2e-05 |
| U31G U57G | < 1e-05 | – | – | – | – |
| U30C A48C | < 1e-05 | < 1e-05 | < 1e-05 | < 1e-05 | < 1e-05 |
| C16U A42U G62A C67A | < 1e-05 | – | – | – | < 1e-05 |
| G32A U57G | < 1e-05 | – | – | – | – |
| U30A U55A C61A | < 1e-05 | – | – | < 1e-05 | – |
| U31A G44C | < 1e-05 | – | – | – | 6.05e-05 ± 1.8e-05 |
| C16U G29C G37A G44A | < 1e-05 | – | – | – | – |
| U31C A48G | < 1e-05 | – | < 1e-05 | – | – |
| U31C G40A G59U | < 1e-05 | < 1e-05 | – | < 1e-05 | < 1e-05 |
| U30C A39C G41U | < 1e-05 | – | – | – | < 1e-05 |
| G32C C70G C71G | 7.5e-05 ± 3.3e-05 | 0.000291 ± 9.2e-05 | – | 7.37e-05 ± 3.4e-05 | – |

| Variant | self-cleavage kobs at 40 uM GlcN6P [1] [s⁻¹] | self-cleavage kobs at 640 uM GlcN6P [2] [s⁻¹] | self-cleavage kobs at 160 uM GlcN6P [3] [s⁻¹] | self-cleavage kobs at 2500 uM GlcN6P [4] [s⁻¹] | self-cleavage kobs at 10000 uM GlcN6P [5] [s⁻¹] |
| --- | --- | --- | --- | --- | --- |
| C16U G32U G40A C71G | < 1e-05 | – | – | – | 0.0002 ± 2.8e-05 |
| G29U U31A A42U | < 1e-05 | – | – | – | – |
| U31C A39U U54C C71U | 5.15e-05 ± 1.1e-05 | – | – | 0.000671 ± 0.00024 | 0.00213 ± 0.00023 |
| U31G U54G | 0.000298 ± 5.4e-05 | 0.00263 ± 0.00063 | 0.000493 ± 8.5e-05 | 0.00445 ± 0.00094 | 0.0119 ± 0.0031 |
| U31G U54A | 0.000582 ± 0.00015 | – | – | 0.00634 ± 0.0018 | 0.00833 ± 0.002 |
| G29C C61U | < 1e-05 | – | – | – | – |
| U30A U31A | 0.000419 ± 7.6e-05 | 0.00269 ± 0.00057 | 0.00152 ± 0.00033 | 0.0075 ± 0.0013 | 0.0264 ± 0.0056 |
| G29C G51U U55G | < 1e-05 | – | – | – | < 1e-05 |
| G29A G35A C68G | 0.000947 ± 0.00027 | – | – | – | 0.000106 ± 3.5e-05 |
| G29U G41A C71G | < 1e-05 | – | – | – | – |
| U31C G40U G44U U46G | < 1e-05 | – | – | – | – |
| U31G A53U C58G G60A | < 1e-05 | – | – | – | < 1e-05 |
| U30A A42U U55C | < 1e-05 | – | – | – | – |
| U31G C34U | < 1e-05 | < 1e-05 | < 1e-05 | – | < 1e-05 |
| U30A C58G U65C | < 1e-05 | – | – | – | – |
| U30A G44A | < 1e-05 | – | < 1e-05 | – | 4.03e-05 ± 8.7e-06 |
| U31A U65C U69C | < 1e-05 | – | – | – | – |
| G21U U46A | 6.35e-05 ± 2.2e-05 | – | – | 0.00271 ± 0.0012 | 0.00269 ± 0.00086 |
| C19A G51A | < 1e-05 | – | – | – | < 1e-05 |
| U31G U49G C50G | < 1e-05 | – | – | – | – |
| U31A C67A | 0.000109 ± 1.4e-05 | 0.000764 ± 0.00012 | 0.000473 ± 8.4e-05 | – | 0.00388 ± 0.00061 |
| C16U A48U G62U | < 1e-05 | < 1e-05 | – | – | < 1e-05 |
| U31A U69C | 0.000182 ± 6.5e-05 | 0.000515 ± 0.00012 | 0.000243 ± 4.5e-05 | – | 0.0039 ± 0.0012 |
| G29A G66A | 7.16e-05 ± 1.8e-05 | – | – | – | 0.00305 ± 0.00076 |
